Laboratory results: patent CN116751285A (UNIV HEBEI NORMAL, dated 2023)

Target: BSA (UniProt P02769 25-607)
Test: indirect ELISA, protein coated, anti-6xHis detection, OD450

Chain of BSA (P02769 25-607 limits assumed): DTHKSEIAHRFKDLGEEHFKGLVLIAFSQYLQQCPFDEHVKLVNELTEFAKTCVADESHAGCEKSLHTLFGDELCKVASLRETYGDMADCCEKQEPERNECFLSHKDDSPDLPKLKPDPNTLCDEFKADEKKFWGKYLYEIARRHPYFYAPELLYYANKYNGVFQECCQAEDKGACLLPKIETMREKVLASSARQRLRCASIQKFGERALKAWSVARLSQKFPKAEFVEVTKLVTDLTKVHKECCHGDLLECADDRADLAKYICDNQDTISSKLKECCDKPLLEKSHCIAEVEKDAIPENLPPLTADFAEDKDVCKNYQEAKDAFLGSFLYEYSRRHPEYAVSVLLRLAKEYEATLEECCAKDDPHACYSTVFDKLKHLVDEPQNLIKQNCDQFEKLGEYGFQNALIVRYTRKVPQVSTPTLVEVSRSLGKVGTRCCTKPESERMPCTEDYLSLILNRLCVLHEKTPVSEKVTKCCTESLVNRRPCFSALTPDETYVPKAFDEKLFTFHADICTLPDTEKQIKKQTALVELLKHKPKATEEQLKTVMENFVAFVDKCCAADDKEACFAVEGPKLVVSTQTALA

B1: VHH-A35R纳米抗体 (VHH)
VHH: AVQLVESGGGLAQTGGSLRLSCAASGRAFRDYAMAWFRQAPGKEREFVAAVSKTGYAIRYEDSVKGRFTISRDNAKNTVSLQMASLKVEDTAVYYCAADRTHRLGYSLRVDPLGYDDWGQGTQVTVSS
binding result: no binding
